Source: patent publication US20240376224A1 (University of California, published 2024)

What was measured:
[1] = target: T1, cleaved human CDCP1 on the cell surface (endogenous, PDAC cells) (human) (UniProt Q9H5V8); assay: dose-response flow cytometry on PL5 cells; PL5 cells
T1 sequence 1: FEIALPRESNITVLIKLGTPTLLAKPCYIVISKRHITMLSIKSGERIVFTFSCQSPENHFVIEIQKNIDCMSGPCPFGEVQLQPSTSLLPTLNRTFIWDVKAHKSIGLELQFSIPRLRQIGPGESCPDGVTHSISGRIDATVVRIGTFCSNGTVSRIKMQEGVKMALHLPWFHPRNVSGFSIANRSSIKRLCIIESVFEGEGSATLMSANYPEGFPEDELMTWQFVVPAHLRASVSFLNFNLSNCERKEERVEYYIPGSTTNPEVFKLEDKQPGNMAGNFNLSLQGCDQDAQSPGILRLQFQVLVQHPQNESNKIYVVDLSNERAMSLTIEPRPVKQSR
T1 sequence 2: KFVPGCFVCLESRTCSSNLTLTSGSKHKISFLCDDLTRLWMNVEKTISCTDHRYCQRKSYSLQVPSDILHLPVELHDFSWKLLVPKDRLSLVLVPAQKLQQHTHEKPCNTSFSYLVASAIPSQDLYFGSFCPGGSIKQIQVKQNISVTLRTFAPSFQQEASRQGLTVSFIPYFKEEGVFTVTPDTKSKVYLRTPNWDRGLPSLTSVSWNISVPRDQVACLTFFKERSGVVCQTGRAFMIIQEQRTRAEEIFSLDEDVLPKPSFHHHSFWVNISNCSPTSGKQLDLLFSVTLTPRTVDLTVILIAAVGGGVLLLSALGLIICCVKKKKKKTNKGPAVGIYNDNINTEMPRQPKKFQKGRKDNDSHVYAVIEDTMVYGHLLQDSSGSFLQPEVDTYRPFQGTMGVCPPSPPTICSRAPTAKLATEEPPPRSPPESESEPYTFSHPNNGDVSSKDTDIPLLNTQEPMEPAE

[2] = target: T2, mouse c-CDCP1 (recombinant cleaved mouse CDCP1) (mouse, UniProt Q5U462 30-368; Q5U462 369-666, limits assumed); assay: BLI (Octet), mouse c-CDCP1-Fc on the sensor, IgG CL03 as analyte
T2 construct: Mouse antigens made were c-CDCP1-Fc (Cut 1) and (Cut 2); also called mouse cleaved CDCP1; cleaved mCDCP1
T2 sequence 1: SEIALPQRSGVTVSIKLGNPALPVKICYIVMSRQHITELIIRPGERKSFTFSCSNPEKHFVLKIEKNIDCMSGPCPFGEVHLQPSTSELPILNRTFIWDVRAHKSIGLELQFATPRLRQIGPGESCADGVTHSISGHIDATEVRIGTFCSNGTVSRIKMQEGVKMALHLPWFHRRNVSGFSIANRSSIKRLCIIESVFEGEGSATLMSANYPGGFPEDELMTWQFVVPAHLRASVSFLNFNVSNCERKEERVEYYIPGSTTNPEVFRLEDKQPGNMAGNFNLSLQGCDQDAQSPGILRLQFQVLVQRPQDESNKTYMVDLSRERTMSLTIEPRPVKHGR
T2 sequence 2: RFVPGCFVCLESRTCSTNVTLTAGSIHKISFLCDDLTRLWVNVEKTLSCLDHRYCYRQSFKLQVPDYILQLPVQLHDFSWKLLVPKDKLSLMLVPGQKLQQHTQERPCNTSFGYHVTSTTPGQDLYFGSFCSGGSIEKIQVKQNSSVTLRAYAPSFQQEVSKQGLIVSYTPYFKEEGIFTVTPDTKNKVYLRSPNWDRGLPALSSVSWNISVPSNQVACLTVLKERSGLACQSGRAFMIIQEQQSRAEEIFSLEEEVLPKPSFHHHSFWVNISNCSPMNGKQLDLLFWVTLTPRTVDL

[3] = target: T3, soluble CUB1 (NTF) used as competitor (human, UniProt Q9H5V8 30-367, limits assumed); assay: flow cytometry competition: CUB1-His (NTF) titrated against 100, 50 or 0 nM IgG CL03 on cleaved CDCP1 positive cells
T3 sequence: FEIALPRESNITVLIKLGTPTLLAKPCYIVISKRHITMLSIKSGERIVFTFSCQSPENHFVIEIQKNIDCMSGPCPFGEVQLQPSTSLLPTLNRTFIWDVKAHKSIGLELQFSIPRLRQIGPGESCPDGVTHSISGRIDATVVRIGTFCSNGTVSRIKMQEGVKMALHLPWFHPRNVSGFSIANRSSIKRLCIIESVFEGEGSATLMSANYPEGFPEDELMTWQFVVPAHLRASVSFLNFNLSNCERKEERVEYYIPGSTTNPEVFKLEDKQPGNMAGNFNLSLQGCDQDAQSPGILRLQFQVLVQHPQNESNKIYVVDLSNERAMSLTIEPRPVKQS
Procedure: To further evaluate the recognition of cleaved CDCP1 on cancer cells by CL03, a competition assay was performed to evaluate whether soluble CUB1 (NTF) could compete with the binding of CL03 on cleaved CDCP1 positive cells. […] Primary Ab (CL03 IgG) and different concentrations of CUB1 (NTF) were added to cells for 30 minutes at 4° C. Bound Abs were detected with addition of AlexaFluor-488 conjugated Goat anti-human IgG, F(ab′)2 fragment specific (Jackson ImmunoResearch: 1:1000). Cells were washed 3× with PBS+3% BSA and fluorescence was quantified using a CytoFLEX (Beckman Coulter) flow cytometer. All flow cytometry data analysis was performed using FlowJo software and Prism software (GraphPad).

B1: CL03 IgG (antibody, V domains shown)
VH: EVQLVESGGGLVQPGGSLRLSCAASGFNFSSYSIHWVRQAPGKGLEWVASIYPYSGSTYYADSVKGRFTISADTSKNTAYLQMNSLRAEDTAVYYCARQSHSYYSHTWWVSYGMDYWGQGTLVTVSS
VL: DIQMTQSPSSLSASVGDRVTITCRASQSVSSAVAWYQQKPGKAPKLLIYSASSLYSGVPSRFSGSRSGTDFTLTISSLQPEDFATYYCQQSGQRPITFGQGTKVEIKR
notes: also called IgG CL03
EC50 [1]: 14.1 nM | binding result [2]: no binding (tested: not printed) | binding result [3]: no binding (tested: about 800 nM)
